Reference: US20200181261A1 (Bayer, published 2020)

Legend:
Test in all cases: SPR, antibody captured, antigen as analyte
[1] = molecular target: T1, human CEACAM3, extracellular (mature form), Sino Biological Inc. 11933-H08H (human, UniProt P40198 35-155)
T1 construct: used biotinylated in some assays; also called TPP-2755
T1 sequence: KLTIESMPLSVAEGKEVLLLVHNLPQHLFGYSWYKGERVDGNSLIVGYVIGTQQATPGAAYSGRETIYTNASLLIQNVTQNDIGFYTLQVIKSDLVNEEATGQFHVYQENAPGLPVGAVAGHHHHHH
Procedure: (§1) Surface plasmon resonance (SPR) experiments for quantitative binding analyses were performed either using a Biacore T100, Biacore T200 or a Biacore 4000 instrument (GE Healthcare Biacore, Inc.) equipped with Series S Sensor Chips CM5 (GE Healthcare Biacore, Inc.). Binding assays were carried out at 25° C. with assay buffer HBS-EP+(10 mM HEPES pH 7.4, 150 mM NaCl, 3 mM EDTA, 0.05% Surfactant P20). Antibodies were captured with an anti-hIgG capture antibody covalently immobilized to the chip surface via amine coupling chemistry. Reagents for amine coupling (1-ethyl-3-(3-dimethylaminopropyl) carbodiimide hydrochloride (EDC), N-hydroxysuccinimide (NHS), ethanolamine-HCl pH 8.5) were used from the Amine Coupling Kit (GE Healthcare, product code BR-1000-50). Anti-hIgG, anti-mIgG capture antibodies and immobilization buffer (10 mM sodium acetate pH 5.0) were used from the Human Antibody Capture Kit (GE Healthcare, BR-1008-39) and the Mouse Antibody Capture Kit (GE Healthcare, BR-1008-38), respectively. The sensor chip surface was activated with a freshly prepared solution of 0.2 M EDC and 0.05 M NHS passed over the chip surface for 420 s at a flow rate of 10 μl/min, followed by an injection of anti-hIgG or anti-mIgG capture antibody (dissolved to 25 μg/ml in immobilization buffer) for 180 s at a flow rate of […]. Excess of activated groups were blocked with a 1 molar solution of ethanolamine injected at a flow rate of 10 μl/min for 420 s.
(§2) CEACAM antigens were used as analyte to determine KD values. Antibodies were captured for 20 s at a flow rate of 10 μl/min prior to each analyte injection.
(§3) Obtained sensorgrams were double-referenced, i.e. in-line reference cell correction followed by buffer sample subtraction.

[2] = molecular target: T2, human CEACAM5, extracellular (mature form), R&D Systems 4128-CM (human, UniProt P06731 35-685)
T2 construct: used biotinylated in some assays; also called TPP-1438; hC5
T2 sequence: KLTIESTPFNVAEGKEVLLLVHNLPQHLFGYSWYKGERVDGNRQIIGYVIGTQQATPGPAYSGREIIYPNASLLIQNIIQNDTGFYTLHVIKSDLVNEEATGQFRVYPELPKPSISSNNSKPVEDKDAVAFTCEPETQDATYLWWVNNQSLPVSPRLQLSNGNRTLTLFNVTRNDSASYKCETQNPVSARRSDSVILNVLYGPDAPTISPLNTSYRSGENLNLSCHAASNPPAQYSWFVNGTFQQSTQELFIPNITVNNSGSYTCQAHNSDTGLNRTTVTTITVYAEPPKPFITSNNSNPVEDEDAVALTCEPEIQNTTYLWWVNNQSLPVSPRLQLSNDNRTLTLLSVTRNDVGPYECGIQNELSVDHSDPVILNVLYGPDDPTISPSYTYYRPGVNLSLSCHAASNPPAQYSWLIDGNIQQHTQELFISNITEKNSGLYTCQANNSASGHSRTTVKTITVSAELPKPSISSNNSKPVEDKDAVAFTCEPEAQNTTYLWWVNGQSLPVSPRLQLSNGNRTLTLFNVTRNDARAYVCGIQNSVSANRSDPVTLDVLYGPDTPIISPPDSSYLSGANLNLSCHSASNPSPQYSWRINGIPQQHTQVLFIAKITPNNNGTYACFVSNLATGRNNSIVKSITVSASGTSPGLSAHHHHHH
Procedure: as §1, §2, §3

[3] = molecular target: T3, Macaca fascicularis CEACAM6, extracellular (mature form), obtained by Factor Xa cleavage of TPP-2443 (Macaca fascicularis)
T3 construct: used biotinylated in some assays; also called APP-319; Cynomolgus CEACAM6
T3 chain: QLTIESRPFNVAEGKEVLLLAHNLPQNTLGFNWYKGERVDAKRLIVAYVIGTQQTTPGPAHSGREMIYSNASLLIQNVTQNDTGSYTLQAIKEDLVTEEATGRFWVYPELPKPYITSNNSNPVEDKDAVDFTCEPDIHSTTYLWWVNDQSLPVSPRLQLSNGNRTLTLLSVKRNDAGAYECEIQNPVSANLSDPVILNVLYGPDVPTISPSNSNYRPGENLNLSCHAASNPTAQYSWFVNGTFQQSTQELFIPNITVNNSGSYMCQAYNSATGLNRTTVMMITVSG
Procedure: as §1, §2, §3

[4] = molecular target: T4, human CEACAM6, extracellular (mature form), R&D Systems 3934-CM (human, UniProt P40199 35-320)
T4 construct: used biotinylated in some assays; also called TPP-1436; Recombinant human CEACAM6
T4 sequence: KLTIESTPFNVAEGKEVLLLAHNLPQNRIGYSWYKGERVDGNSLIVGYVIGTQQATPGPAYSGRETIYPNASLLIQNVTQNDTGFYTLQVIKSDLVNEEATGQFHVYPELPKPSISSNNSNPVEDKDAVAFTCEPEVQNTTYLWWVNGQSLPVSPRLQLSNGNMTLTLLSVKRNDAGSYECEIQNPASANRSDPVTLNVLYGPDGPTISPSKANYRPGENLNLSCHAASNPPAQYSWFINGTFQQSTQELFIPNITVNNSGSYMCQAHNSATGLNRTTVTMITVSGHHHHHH
Procedure: as §1, §2, §3

Binder | binding result [1] | binding result [2] | Kd [3] [nM] | Kd [4] [nM]
TPP-2971 (antibody, mouse IgG1, V domains shown, murine hybridoma antibody, mouse IgG1; also called 792.15H12C9) VH: QVTLKESGPGILQPSQTLSLTCSFSGFSLSTYGIGVGWIRQPSGKDLEWLAHIWWNDNKYYNTALKSRLTISKDTSNNQVFLKIASVDTADTATYYCARISLPYFDYWGQGTTLTVSS VL: DIVMTQSQKFMSTSVGDRVSITCKASQNVGTAVAWYQQKPGQSPKLLIYSASNRYTGVPDRFTGSGSGTDFTLTISNMQSEDLADYFCQQYSSYPLTFGAGTKLELK | no binding (tested: 200 nM) | no binding (tested: 200 nM) | 25 | 61
TPP-3187 (antibody, mouse IgG1, V domains shown, murine hybridoma antibody, mouse IgG1; also called 792.15C4F4) VH: QVTLKESGPGILQPSQTLSLTCSFSGFSLTTYGIGVGWIRQPSGKGLEWLAHIWWNDNKYYNTALKSRLTISKDTSNNQVFLKIASVDTADTATYYCARISLPYFDYWGQGTTLTVSS VL: DIVMTQSQKFMSTSVGDRVSITCKASQNVGTAVAWYQQKPGQSPKLLIYSASNRYTGVPDRFTGSGSGTDFTLTISNMQSEDLADYFCQQYNNYPLTFGAGTKLELK | no binding (tested: 200 nM) | no binding (tested: 200 nM) | – | 68
TPP-3821 (antibody, human IgG2, kappa, V domains shown, humanized from TPP-3187, human IgG2; also called 3187HU2-hIgG2Kappa) VH: QVTLRESGPALVKPTQTLTLTCTFSGFSLSTYGIGVGWIRQPPGKALEWLAHIWWNDNKYYSTSLKTRLTISKDTSKNQVVLTMTNMDPVDTATYYCARISLPYFDYWGQGTLVTVSS VL: DIQLTQSPSFLSASVGDRVTITCKASQNVGTAVAWYQQKPGKAPKLLIYSASNRYTGVPSRFSGSGSGTEFTLTISSLQPEDFATYYCQQYNNYPLTFGGGTKVEIKR | no binding (tested: 200 nM) | no binding (tested: 200 nM) | 49 | 24
TPP-3820 (antibody, human IgG2, kappa, V domains shown, humanized from TPP-3187, human IgG2; also called 3187HU1-hIgG2Kappa) VH: QVTLRESGPALVKPTQTLTLTCTFSGFSLTTYGIGVGWIRQPPGKGLEWLAHIWWNDNKYYSTSLKTRLTISKDTSKNQVVLTMTNMDPVDTATYYCARISLPYFDYWGQGTLVTVSS VL: DIQLTQSPSFLSASVGDRVTITCKASQNVGTAVAWYQQKPGKAPKLLIYSASNRYTGVPSRFSGSGSGTEFTLTISSLQPEDFATYYCQQYNNYPLTFGGGTKVEIKR | no binding (tested: 200 nM) | no binding (tested: 200 nM) | 54 | 27
TPP-3310 (antibody, human IgG2, kappa, humanized from TPP-2971, human IgG2; also called TPP-2971HU1-hIgG2Kappa) heavy: QVTLRESGPALVKPTQTLTLTCTFSGFSLSTYGIGVGWIRQPPGKALEWLAHIWWNDNKYYSTSLKTRLTISKDTSKNQVVLTMTNMDPVDTATYYCARISLPYFDYWGQGTTLTVSSASTKGPSVFPLAPCSRSTSESTAALGCLVKDYFPEPVTVSWNSGALTSGVHTFPAVLQSSGLYSLSSVVTVPSSNFGTQTYTCNVDHKPSNTKVDKTVERKCCVECPPCPAPPVAGPSVFLFPPKPKDTLMISRTPEVTCVVVDVSHEDPEVQFNWYVDGVEVHNAKTKPREEQFNSTFRVVSVLTVVHQDWLNGKEYKCKVSNKGLPAPIEKTISKTKGQPREPQVYTLPPSREEMTKNQVSLTCLVKGFYPSDIAVEWESNGQPENNYKTTPPMLDSDGSFFLYSKLTVDKSRWQQGNVFSCSVMHEALHNHYTQKSLSLSPG light: DIQLTQSPSFLSASVGDRVTITCKASQNVGTAVAWYQQKPGKAPKLLIYSASNRYTGVPSRFSGSGSGTEFTLTISSLQPEDFATYYCQQYSSYPLTFGGGTKVEIKRTVAAPSVFIFPPSDEQLKSGTASVVCLLNNFYPREAKVQWKVDNALQSGNSQESVTEQDSKDSTYSLSSTLTLSKADYEKHKVYACEVTHQGLSSPVTKSFNRGEC | no binding (tested: 200 nM) | no binding (tested: 200 nM) | 31 | 13
TPP-3714 (antibody, human IgG2, kappa, humanized from TPP-2971, human IgG2; also called TPP-2971HU2-hIgG2Kappa) heavy: QVTLRESGPALVKPTQTLTLTCTFSGFSLSTYGIGVGWIRQPPGKALEWLAHIWWNDNKYYSTSLKTRLTISKDTSKNQVVLTMTNMDPVDTATYYCARISLPYFDYWGQGTLVTVSSASTKGPSVFPLAPCSRSTSESTAALGCLVKDYFPEPVTVSWNSGALTSGVHTFPAVLQSSGLYSLSSVVTVPSSNFGTQTYTCNVDHKPSNTKVDKTVERKCCVECPPCPAPPVAGPSVFLFPPKPKDTLMISRTPEVTCVVVDVSHEDPEVQFNWYVDGVEVHNAKTKPREEQFNSTFRVVSVLTVVHQDWLNGKEYKCKVSNKGLPAPIEKTISKTKGQPREPQVYTLPPSREEMTKNQVSLTCLVKGFYPSDIAVEWESNGQPENNYKTTPPMLDSDGSFFLYSKLTVDKSRWQQGNVFSCSVMHEALHNHYTQKSLSLSPG light: DIQLTQSPSFLSASVGDRVTITCKASQNVGTAVAWYQQKPGKAPKLLIYSASNRYTGVPSRFSGSGSGTEFTLTISSLQPEDFATYYCQQYSSYPLTFGGGTKVEIKRTVAAPSVFIFPPSDEQLKSGTASVVCLLNNFYPREAKVQWKVDNALQSGNSQESVTEQDSKDSTYSLSSTLTLSKADYEKHKVYACEVTHQGLSSPVTKSFNRGEC | no binding (tested: 200 nM) | no binding (tested: 200 nM) | 27 | 13
TPP-3705 (antibody, human IgG2, kappa, V domains shown, also called 090E-M007-A09-Mat1-hIgG2-hIgG2Kappa) VH: EVQLVESGGGLVQPGGSLRLSCAASGFTFSLYQMHWVRQAPGKGLEWVSWISFSGGNTGYADSVKGRFTISRDNSKNTLYLQMNSLRAEDTAVYYCARATGYSSPWYLDPWGQGTLVTVSS VL: DIQMTQSPSSLSASVGDRVTITCQASHEIDNYLNWYQQKPGKAPKLLIYDAYWLKTGVPSRFSGSGSGTDFTLTISSLQPEDIATYYCQGYDDLSVTFGGGTKVDIKR | – | no binding (tested: 200 nM) | 32 | 28
TPP-3707 (antibody, human IgG2, kappa, V domains shown, also called 090E-M007-A09-Mat2-hIgG2-hIgG2Kappa) VH: EVQLVESGGGLVQPGGSLRLSCAASGFTFSLYQMHWVRQAPGKGLEWVSWISFSGGNTGYADSVKGRFTISRDNSKNTLYLQMNSLRAEDTAVYYCARATGYSSPWYLDPWGQGTLVTVSS VL: DIQMTQSPSSLSASVGDRVTITCQASHEIDNYLNWYQQKPGKAPKLLIYDAYWSKTGVPSRFSGSGSGTDFTLTISSLQPEDIATYYCQGYDDLSVTFGGGTKVDIKR | – | no binding (tested: 200 nM) | 32 | 28
